US20230383000A1

Target: human IL-1R3 on cells (SK-MEL-30, A549, HEK-293 and other human cell lines) (human) (UniProt Q9NPH3)
Assay: flow cytometry on SK-MEL-30 cells (high IL-1R3 expression), 1:2 dilution series from 20 µg/ml

Sequence of human IL-1R3 on cells (SK-MEL-30, A549, HEK-293 and other human cell lines) (human) (Q9NPH3 21-570): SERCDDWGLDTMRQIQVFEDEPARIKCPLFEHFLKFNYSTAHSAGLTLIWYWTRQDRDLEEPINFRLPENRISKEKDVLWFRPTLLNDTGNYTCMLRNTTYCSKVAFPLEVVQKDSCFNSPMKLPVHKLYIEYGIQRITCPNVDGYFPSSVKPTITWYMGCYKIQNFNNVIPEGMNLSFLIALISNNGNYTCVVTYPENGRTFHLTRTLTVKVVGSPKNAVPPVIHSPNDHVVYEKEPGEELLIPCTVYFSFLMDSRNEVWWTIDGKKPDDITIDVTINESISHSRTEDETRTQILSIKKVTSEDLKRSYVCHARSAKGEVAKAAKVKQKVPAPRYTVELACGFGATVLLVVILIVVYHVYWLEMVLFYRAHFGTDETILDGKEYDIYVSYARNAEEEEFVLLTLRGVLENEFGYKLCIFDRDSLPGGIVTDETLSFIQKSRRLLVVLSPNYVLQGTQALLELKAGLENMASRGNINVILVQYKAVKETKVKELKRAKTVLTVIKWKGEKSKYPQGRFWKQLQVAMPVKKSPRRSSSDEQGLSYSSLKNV

EC50: 0.307 µg/mL
B1: MAB-16-0030 (humanized anti-IL-1R3 IgG1-LALA antibody) (antibody, from another filing, V domains shown)
VH: EVQLEESGGRLVQPGTSLRLSCAVSGFSLSSYDMSWVRQAPGKGLEWVSTIYIGGTTAYASWPKGRFTISKTNSKNTLYLQMNSLRAEDTAVYFCARLQGANYYNSLALWGQGTLVTVSS
VL: DVQMTQSPSSLSASVGDRVTITCQASQSIYSFLSWYQQKPGQAPKLLIYAASDLESGVPSRFSGSGSGTDFTLTISSLQPEDFATYYCQCNYIIDYGAFGQGTKVVIKR
